Test results reported in the DeepSol protein solubility set.

Assay: soluble on expression in E. coli; label from the status in PepcDB or PDB records

Row | Sequence | soluble on expression in E. coli
1 | MGSDKIHHHHHHMKKEDKTPSRLIQLGKIYRLIEQFEEISRIELSKLSGLAPASITSLSRSLIEKRLIMEKTSRNTDNRGRPAIALCVSPFYWQALCATLVEDRFEIILSELDGVIIEQSVFPLQKDDLECLDKFLVKSVKQFLAETHSLARPITFSVTVGGELDKNGYLIKLGCTKFAHLDLKSLFTPYFNIPILIAEYFKTWLLAESTLGNVINCDDVLFLQLDDEINLSVLSEGELLFSREQDKININHLIVPRLNELQALINHDLPEVERYQVQHQVTHRAIAQFIDALYPNRVFSNNSEKMNFLCEQIQLKDKNALRIIEHITDCLAYILMNLVHIFSARRVMLNSSLLQLKDFLLEQLNRKLKSYLVDNISTVSVIAGKYEWNSPIVAASAIKQGIYDGSLLTSLVKQEENIINF | not soluble
2 | MSQEIQPQATQLQPFSQACENNKVPILAVLKSAFANTTRVLEIGSGTGQHAVYFATNLPQLFWQTSDQAEYLEGIKARCLLQGHQLGINNLGFPITLDVTAPWPVNGTHIDAVFSANTLHIMSKSMVEAFFNGLGEYLPQLNTLCIYGPFNYQGHYTSDSNRQFDHFLKQRDSESGIRDIEWIIALAQAQGLTLVEDIAMPTNNRLLHFKHLLALEHHHHHH | soluble
3 | MPDIVNRKVEHVEIAAFENVDGLSSSTFLNDVILVHQGFPGISFSEINTKTKFFRKEISVPVMVTGMTGGRNELGRINKIIAEVAEKFGIPMGVGSQRVAIEKAEARESFAIVRKVAPTIPIIANLGMPQLVKGYGLKEFQDAIQMIEADAIAVHLNPAQEVFQPEGEPEYQIYALEKLRDISKELSVPIIVKESGNGISMETAKLLYSYGIKNFDTSGQGGTNWIAIEMIRDIRRGNWKAESAKNFLDWGVPTAASIMEVRYSVPDSFLVGSGGIRSGLDAAKAIALGADIAGMALPVLKSAIEGKESLEQFFRKIIFELKAAMMLTGSKDVDALKKTSIVILGKLKEWAEYRGINLSIYEKVRKRE | soluble
4 | MSLDLFIPEVAYINPQALKHPLGNEAYQYLKSMGVPIIESNRVSIDTDSPVKNYVKAKKTILLTVSKQKKLQQCKPSADYQFALSSSCPGHCEYCYLQTTQGEKPYMRLFVNIEEILENIQEYMDGNKPNITTFEAASITDPVGLDHITRALEKCITYFGESSHGRLRLVTKFDHVDPYLKLPHNGHTTFRFTINTQWVIKNFEHHTSSAHERVEGAKKIAHANYPLGFIIAPIMLYDHWEKDYKDLLEELSLALKDYEKPIGFEMIQHRFTSKAKDLILQRFPNTKLNLDEESRKLKWGPYGQFKYVYPTEKSDYMRDYLTGLIKDLFPNGRIEYFTEGHHHHHH | not soluble
5 | KDFLAMFSPKCGGCNRPVLENYLSAMDTVWHPECFVCGDCFTSFSTGSFFELDGRPFCELHYHHRRG | soluble
6 | MTTRCPWVGEQSIYIDYHDKEWGKPEFDSQKLFEKICLEGQQAGLSWITVLKKRESYREAFHQFDPKKIAKMTALDIDACMQNSGLIRHRAKLEAIVKNAKAYLAMEKCGENFSDFIWSFVNHKPIVNDVPDLRSVPTKTEVSKALSKALKKRGFVFIGETTCYAFMQSMGLVDDHLNDCPCKTSLEHHHHHH | soluble
7 | MLNDLYEEIKLRKTQPREGSYTNYLFDKGLDKILKKVGEEATEVVIAAKNDNQELIAEVSDLAYHLLVLLAEKNIPLVAIQTELQKREGKLSTTRDRKEINDL | not soluble
8 | MGSDKIHHHHHHMILKFLNETLPWVRKPSRYIGREINSVVKDPEEISLRIALVFPDTYEVGTSNHGLEILYHILNEQPDVWAERSYLPWIDMIERMKEKDIPLYTMESYTPLYQMDAVGISLEYELSYTNVVEVLKLSKIPIFFWERKRRDPIVLGGGPCSSNPEPIYGFFDAILIGDGEEAILEIAQVLKETKGEERETIWKELSRIEGVYVPAFYEQKGRKIVPVSPEYPRTIKRRIVKDLNSQPVPVKKIVPNVESVHDRAVIEVARGCTRGCRFCHASVYYRPVRERSLENILENVEEMLKNTGYEEVSLLSLSTMDHTQIGEIVSELLKRYSEKKIAVSIPSTRMDRFGVEIAGRIASVRKTGLTFAPEAATQRLRNIINKNISEEDIFATLEAAKKSGWRRVKLYFMMGLPGETNEDLEEMVKLLERVKRLGFKEVSASVSVFVPKPHTPFQFARQISPEEAYEKIKTLKRAKRSARISYHDPRMSLLEGVFSRGDRKLLDLIVKAHELGALFDEWSEMFRFDLWEKAFDETGIDPNDYLREIDPSEDFPWDHIDMGVTKEFLKEEYRKALKGETTDDCRWNRCYLCGVCFRFGVKNVLFGGERG | not soluble
9 | MGSDKIHHHHHHMSTLLQIKNLRTYFFTDEGVVKAVDGVSFEIEEGRTLGVVGESGCGKSVTARSIIKLLSTAGRIVSGEILYNMDGQMVDLVKFSKEEIRKVRGRHIAMIFQEPMAAFSPVYTIGDQITEGMIYHFGITKQEARERAVELLRRVGIPKPEKMIDSYPFEYSGGMRQRAMIAMALSCNPRLLIADEPTTALDVTIQAQVLDLLKDLQQEYKMAIMMITHNMGVVAEMADHVVVMYLGRVVESAPVEELFYNPKHPYTSLLLRSIPVVGKRVERLEVIEGDVPDPRNMPKGCRFHPRCPYMMKGICDEREPVEVEVGPEHRVSCFLYGGEKDGAS | not soluble
10 | PIEGEKVDLRIMSTTDLHTNLVNYDYYQDKESQKIGLAKTAVLIEEAKKENPNTVLVDNGDVIQGTPLGTYKAIVKPVAENEEHPMYQAMNALGYDASTLGNHEFNYGLDYLKKIIATANLPILNANVLDFKTHQPVFKTYDIITKTFKDSTGRAVALNIGITGIVPPQILNWDKANLEGKVIVKDSVKAIEEIVPTMRAKGADVILVLSHSGIGDDRYEEGEENVGYQIASIKGVDAVVTGHSHAEFPSGNGTGFYEKYTGVDGINGKINGTPVTMAGKYGDHLGIIDLGLSYTNGKWQVSESSAKIRKIDMNSTTADERIIALAKEAHDGTINYVRQ | not soluble
11 | MAHHHHHHMLWRKQCACRTPEHPTKGYRSVNDSLQLMEIRRTSTPLNYKLLRAYQFLPYEVPFPPHTFASQQWREGENVEAHYALYQTCLCMYLVSSDMSLTVTNMLPALGIHEHDVHKVSRTLCAARCST | not soluble
12 | MDQFISAFLKSASENNFQQLAKEFLPQYSALISKAGGMLSPETLTGIHKALQEGNLSDVMSQIQKAISAAENAILEVAVIGQSGTGKSSFINALRGLGHEADESADVGTVETTMCKTPYQHPKYPKVIFWDLPGTGTPNFHTDTYLDQVGFANYDFFIIISSSRFSLNDALLAQKIKDAGKKFYFVRTKVDSDLYNEQKAKPIAFKKEKVLQQIRDYCVTNLIKTGVTEPRIFLISNLDLGTFDFPELEETLLKELPGHKRHMFALLLPNISDASIELKKHFLREKIWLEALKSAAVSFIPFMTFFKGFDLPEQEQCLKDYRSYFGLDDQSIKEIAEKLGAPLADIKGELKCLDFWSLVKDNSIIAQATSAAEAFCAVKGGPESSAFQALKVYYRRTQFLNIVVDDAKHLLRKIETVNVA | soluble
13 | MGSDKIHHHHHHMKVALLSPIAWRTPPRHYGPWERVVSLIAEGLVKKGVDVTLFATGDSKTAGRLEYICPIPYEENPNMDAKVWEAMHIAHLFEQAHKFDIIHNNYDFLPLSYSRQVDTPMITTIHGFSSPKILPIYREYNRNNYYVSISNADRSPDLDYYATVYHGIDLNELTLKLNAGSYLLYFGRIHPDKGTAQAIEIARKSDMQLLIAGIIQDKQYFNQQIYPRIDNKKVIYLGSVGPAKRDELLGNALALLHPIHFNEPFGLSVIEAMACGTPVIAFNKGSMPEVIKDGETGFLVDNVEMACEKLGSINKIKRANCRYWVEENFSQERMVSDYLSLYQEIIKGGKLPVRTPSLSGRCK | not soluble
14 | DQALATALPGKWIHLRILALANAHIVIDEVHTLDHYQTALLENILPILAKLKTKITFLTATMPSWQRTKLLTAYGGEDLQIPPTVFPAAETVLPGQFNRTLIDSDSTTIDFTMEETSYDHLVESHVKWHQTTRLNAPHARIGLICNTVKRAQEIAAALEKTNDRIVLLHSRMTTEHRRRSAELLESLLGPNGNRKTITVVGTQAIEASLDIDLDILRTELCPAPSLVQRAGRVWRRNDPYRSSRITADHKPISVVFIAEAEDWQVLPYLRAETSRTQRWLEKHNQMFLPQMAQEFIDAATVDLDTATSEMDLDALALMGIHLMKADGAKARIQDVLNSDSKVSDFALLTSKNEIDEAQTRLIEEGTHLRIILGDENESIPGGWKHGLSSLLKLKASDRESLRTALLASIPLLVSEKQKQLLYQHN | not soluble
